The source of these data is the RNAGym collection of RNA variant scans (doi:10.7554/elife.90254).

B1: OR4K15 (parent)
chain: GUUAACGGUCAUAGGCCAUGGAAACUAGGAGCACCAUUUCGCUGCCAGUGAAGAAAUGAACAAAGAAAAUCUGGGCCAGGCAGGCAUCAAAAGAAAUAGUCUUGCGCUCAACCAGAAAGUCUGUAAUCAUUUUAAGGGUA

The data set covers variants of B1. The experiment in a line: self-cleavage, relative activity (ratio to wild type); higher = more cleavage; in vitro, sequencing; the parent is a self-cleaving ribozyme.
Turning to GUUAACGGUCAUAGGCCAUGGGAACUAGGAGCACCAUUUCGCUGCCAGUGAGGAAAUGAACAAAGAAAAUCUGGGCCAGGCAGGCAUCAAAAGAAAUAGUCUUGCGCUCAACCAGAAAGUCUGUAAUCAUUUUAAGGGUA, the self-cleavage worked out at 0.91.

Take GUUAACGGUCAUAGGCCAUGGAAACUAGGAGUACCAUUUCGCUGCCAGUGAAGAAAUGAACAAAGAAAAUCUGGGCCAGGCAGGCAUCAAAAGAAAUAGUCUCGCGCUCAACCAGAAAGUCUGUAAUCAUUUUAAGGGUA: the self-cleavage worked out at 0.91.

Consider GUUAACGGUCAUAGGCCAUGGAAACUAGGAGCACCAUUUCGCUGCCAGUGAAGAAAUGAACAAAGAAAAUCUGGGCCAGGCAGGCCUCAAAAGGAAUAGUCUUGCGCUCAACCAGAAAGUCUGUAAUCAUUUUAAGGGUA, for which the self-cleavage came to 0.32.

As for GUUAACGGUCAUUGGCCAUGGAAACUAGGAGCACCAUUUCGCUGCCAGUGAAGAAAUGAACAAAGAAAAUCUGGGCCAGGCAGGCAUCACAAGAAAUAGUCUUGCGCUCAACCAGAAAGUCUGUAAUCAUUUUAAGGGUA, the self-cleavage came out at 1.69.

Take GUUAACGGUCAUAGGCCAUGGAAACUAGGAGCACCAUUUCGCUGCCAGCGAAGAGAUGAACAAAGAAAAUCUGGGCCAGGCAGGCAUCAAAAGAAAUAGUCUUGCGCUCAACCAGAAAGUCUGUAAUCAUUUUAAGGGUA: the self-cleavage came to 1.22.

As for GUUAACGGUCAUAGGCCAUGGAAACUAGGGGCACCAUUUCGCUGCCAGUGAAGAAAUGAACAAAGAAAAUCUGGGCCAGGCAGGCAUCAUAAGAAAUAGUCUUGCGCUCAACCAGAAAGUCUGUAAUCAUUUUAAGGGUA, the self-cleavage turned out to be 1.68.

As for GUUAACGGUCAUAGGCCAUGGAGACUAGGAGCACCAUUUCGCUGCCAGAGAAGAAAUGAACAAAGAAAAUCUGGGCCAGGCAGGCAUCAAAAGAAAUAGUCUUGCGCUCAACCAGAAAGUCUGUAAUCAUUUUAAGGGUA, the self-cleavage came out at 1.12.

For the variant GUCAACGGUCAUAGGCCAUGGAAACUAGGAGCACCAUUUCGCUGCCAGUGAAGAAAUGAACAAAGAAAAUCUGGGCCAGGCAGGCAUCAAAAGAAAUAGUCUUGCGCUCAACCAGAAAGUCUGUAAUCAUUUUAAGGGUG, the self-cleavage came out at 0.65.

As to GUUAACGGUCAUAGGCCAUGGAAAGUAGGAGCACCAUUUCGCUGCCAGUGAAGAAAUGAACAAAGAAAAUCUGGGCCAGGCAGGCAUCAAAAGAAAUAGUCUUGCGCUCAACCAGAAAGUCUGUAAUCAUUUUAAGGGUA, the self-cleavage worked out at 1.1.

As for GUUAACGGUCAUAGGCCAUGGAAACUAGGAGCACCAUUUCGCUGCCAGUGAAGAAAUGAACAGAGUAAAUCUGGGCCAGGCAGGCAUCAAAAGAAAUAGUCUUGCGCUCAACCAGAAAGUCUGUAAUCAUUUUAAGGGUA, the self-cleavage came out at 1.49.

GUUAACGGUCAUAGGCCAUGGAAACUAGGAGCACCAUUUCGCUGCCAGCGAAGAAAUGAACAAAGAAAAUCUGGGCCAGGCAGGCAUCUAAAGAAAUAGUCUUGCGCUCAACCAGAAAGUCUGUAAUCAUUUUAAGGGUA: the self-cleavage is 2.12.

Take GUUAACGGUCAUAGGCCAUGGAAACUAGGAGCACCAUUUCGCUGCCAGUGAAGAAAUGAACAAAGAAAAUCAGGGCCAGGCAGGCAUCAAAAGAAAUAGUCUUGCGCUCAACCAGAAAGUCUGUGAUCAUUUUAAGGGUA: the self-cleavage turned out to be 0.05.

GUUAACGGUCAUAGGCCAUGGUAACUAGGAGCACCAUUUCGCUGCCAGUGAAGAAAUGAACAAAGAAAAUCUGGGCCAGGCAGGCAUCAAAAGAAAUAGUCCUGCGCUCAACCAGAAAGUCUGUAAUCAUUUUAAGGGUA: the self-cleavage amounted to 2.02.

Consider GUUAACGGUCAUAGGCCAUGGAAACUAGGAGCACCGUUUCGCUGCCAGUGAAGAAAUGUACAAAGAAAAUCUGGGCCAGGCAGGCAUCAAAAGAAAUAGUCUUGCGCUCAACCAGAAAGUCUGUAAUCAUUUUAAGGGUA, for which the self-cleavage turned out to be 0.83.

Consider GUUAACGGUCAUAGGCCAUGGAAUCUAGGAGCACCAUUUCGCUGCCAGUGAAGAAAUGAACAAAGAAAAUCUGGGCCAGGCAGGCAUCAAAAGAAAUAGUCUUGCGCUCAGCCAGAAAGUCUGUAAUCAUUUUAAGGGUA, for which the self-cleavage is 0.03.

GUUAACGGUCAUAGGCUUUGGAAACUAGGAGCACCAUUUCGCUGCCAGUGAAGAAAUGAACAAAGAAAAUCUGGGCCAGGCAGGCAUCAAAAGAAAUAGUCUUGCGCUCAACCAGAAAGUCUGUAAUCAUUUUAAGGGUA: the self-cleavage worked out at 1.26.

With GUUAACGGCCAUAGGCCAUGGAAACUAGGAGCACCAUUUCGCUGCCAGUGAAGAAAUGAACAAAGAAAAUCUGGGCCAGGCAGGCAGCAAAAGAAAUAGUCUUGCGCUCAACCAGAAAGUCUGUAAUCAUUUUAAGGGUA, the self-cleavage is 0.69.

Regarding GUUAACGGUCAUAGGCCAUGGAAACUAGGAGCACCAUUUCGCUGCCAGUGAAGAAAUGAACAAAGAAAAUCUGGGCCAGGCAGGCAUCAAAAGAAAUAGUCUUGCGCUCAACCAGAAAGUCUGUGAUCGUUUUAAGGGUA, the self-cleavage stood at 0.41.

For GUUAGCGGUCAUAGGCCAUGGAAACUAGAAGCACCAUUUCGCUGCCAGUGAAGAAAUGAACAAAGAAAAUCUGGGCCAGGCAGGCAUCAAAAGAAAUAGUCUUGCGCUCAACCAGAAAGUCUGUAAUCAUUUUAAGGGUA, the self-cleavage stood at 1.06.

On to GUUAAAGGUCAUAGGCCAUGGAAACUAGGAGCACCAUAUCGCUGCCAGUGAAGAAAUGAACAAAGAAAAUCUGGGCCAGGCAGGCAUCAAAAGAAAUAGUCUUGCGCUCAACCAGAAAGUCUGUAAUCAUUUUAAGGGUA, for which the self-cleavage came out at 0.42.

GUUAACGGUCAUAGGCCAUGGAAACUAGGAGCACCAUUUCGCUGCCAGUGAAGAAAUGAACAAAGAAAAUCUGGGCCAGGCAGGCAUCAAAUGAAAUAGUCUUGCGCUCAACCAGAAGGUCUGUAAUCAUUUUAAGGGUA: the self-cleavage amounted to 1.02.

Take GUUAACGGUCAUAGGCCAUGGAAACUAGGAGCACCAUUUCGCUGCCAGAGCAGAAAUGAACAAAGAAAAUCUGGGCCAGGCAGGCAUCAAAAGAAAUAGUCUUGCGCUCAACCAGAAAGUCUGUAAUCAUUUUAAGGGUA: the self-cleavage came out at 0.3.

As for GUUAACGGUCAUAGGCCAUGGAAACUAGGAGCACCAUUUCGCUGCCAGUGAAGAAAUGAACAAAGAAAAUCUGGGCCAGGCAGGCAUCAAUAGAAAUAGUCUUGCGCUCAUCCAGAAAGUCUGUAAUCAUUUUAAGGGUA, the self-cleavage is 0.23.

Take GUUAACGGUCAUAGGCCAUGGAAACUAGGAGCACCAUUUCGCUGCCAGUGAAGAAAUAAACAAAGAAAAUCUGGGCCAGGCAGGCAUCAAAAGAAAUAGUCUUGCGCUCAACCAGAAAGUCUGUAGUCAUUUUAAGGGUA: the self-cleavage worked out at 0.63.

As for GCUAACGGUCAUAGGCCAUGGAAACUAGGAGCACCAUUUCGCUGCCAGUGAAGAAAUGAACAAAGAAAAUCUGGUCCAGGCAGGCAUCAAAAGAAAUAGUCUUGCGCUCAACCAGAAAGUCUGUAAUCAUUUUAAGGGUA, the self-cleavage came out at 0.27.

As to GUUAACGGCCAUAGGCCAUGGAAACUAGAAGCACCAUUUCGCUGCCAGUGAAGAAAUGAACAAAGAAAAUCUGGGCCAGGCAGGCAUCAAAAGAAAUAGUCUUGCGCUCAACCAGAAAGUCUGUAAUCAUUUUAAGGGUA, the self-cleavage was 2.15.

As for GUUAACGGUCAUAGGCCAUGGAAACUAGGAGCACCAUUUCGCUGCCAGUGAAGAAAUGAACAAAGAAAAUCUGGGCCAGGCCGGCAUCAAAAGAAAUAGUCUUGCGCUCAACCAGGAAGUCUGUAAUCAUUUUAAGGGUA, the self-cleavage worked out at 0.09.

GUUAACGGACAUAGGCCAUGGAAACUAGGAGCACCAUUUCGCUGCCAGUGAAGGAAUGAACAAAGAAAAUCUGGGCCAGGCAGGCAUCAAAAGAAAUAGUCUUGCGCUCAACCAGAAAGUCUGUAAUCAUUUUAAGGGUA: the self-cleavage was 1.42.

Turning to GUUAACGGUCAUAGGCCAUGGAAACUAGGAGCACCAUUUCGCUGCCAGUGAAGAAAUGAACAAAGAAUAUCUGGGCCAGGCAGGCAUCAAAAGAAAUAGUCUUGCGCUCAACCAGAAAGUCUGUAAUCAUUUUAAGAGUA, the self-cleavage stood at 1.39.

For the variant GUUAACGGUCAUAGGCCAUGGAAACUAGGAGCACCAUUUCGCUGCCAGUGAAGAAAUUAACAAAGAAAAUCUGGGCCAGGCAGGCAUCAGAAGAAAUAGUCUUGCGCUCAACCAGAAAGUCUGUAAUCAUUUUAAGGGUA, the self-cleavage amounted to 1.25.

As for GUUGACGGUCAUAGGCCGUGGAAACUAGGAGCACCAUUUCGCUGCCAGUGAAGAAAUGAACAAAGAAAAUCUGGGCCAGGCAGGCAUCAAAAGAAAUAGUCUUGCGCUCAACCAGAAAGUCUGUAAUCAUUUUAAGGGUA, the self-cleavage is 1.23.

Consider GUUAACGGUCAUAGGCCAUGGAAACUAGGAGCACCAUUUCGCUGCCGGUGAAGAAAUGAACAAAGAAAAUCUGGGCCAGGCAGCCAUCAAAAGAAAUAGUCUUGCGCUCAACCAGAAAGUCUGUAAUCAUUUUAAGGGUA, for which the self-cleavage is 0.24.

Take GUUAACGGUCAUAGGCCAUGGAAACUAGGAGCACCAUUUCGCUGCCAGUGAAGAAAUGAACAAAGAAAAUCUGGGCCAGGCAGGCAUCAAAAGAAAUAGUCUGGCGCUCAACCAGAAAAUCUGUAAUCAUUUUAAGGGUA: the self-cleavage amounted to 0.01.

For GUUAACGGUCAUAGGCCAUGGAAACUAGGAGCACCAUUUCGCUGCCAGUGAAGAAAAGAACAAAGAAAAUCUGGGCCAGGCAGGCAUCAAAAGAAAUAGUCUUGCGCUCAACCAGAAAGUCUGUGAUCAUUUUAAGGGUA, the self-cleavage was determined as 0.52.

With GUUAACGGUCAUAGGCCAUGGAUACUAGGAGCACCAUUUCGCUGCCAGUGAAGAAAUGAACAAAGUAAAUCUGGGCCAGGCAGGCAUCAAAAGAAAUAGUCUUGCGCUCAACCAGAAAGUCUGUAAUCAUUUUAAGGGUA, the self-cleavage came out at 1.42.

Regarding GCUAACGGUCAUAGGCCAUGGAAACUAGGAGCACCAUUUCGCUGCCAGUGAAGAAAUGAACAAAGAAAAUCUGGGCCAGGCAGGCAUCAAAAGAAAUAGUCUUGCGCUCAACCAGAAAGUCUGUAAUCAUUUUAAGGGAA, the self-cleavage amounted to 0.92.

For GUUAACGGUCAUAGGCCAUGGAAACUAGGAGCACCAUUUCGCUGCCAGUGAAGAAAUGAACAAAGAAAAUCUGGGCCAGGCAGGCAUCAAAAGAAAUAGUCUUGCGCUCAACCAGAAAGUCUGUAAUCAUUAUAAGGGUU, the self-cleavage came to 0.14.

Turning to GUUAAAGGUCAUAGGCCAUGGAAACUAGGAGCACCAUUUCGCUGCCAGUGAAGAAAUGAACAAAGAAAAUCUGGGCCAGGCAGGCAUCAAAAGGAAUAGUCUUGCGCUCAACCAGAAAGUCUGUAAUCAUUUUAAGGGUA, the self-cleavage was determined as 0.36.

For GUUAACGGUCAUAGGCCAUGGAAACUAGGAGCACCAUUUCGCUGCCAGUGAAGAAAUGAACAAAGAAAAUCUGGGCCAGGCAGGCAUCAAGAGAAAUAGUCUUGCGCUCAACCAGAAAGUCUGUAAUCAUUUUAAGGGUA, the self-cleavage was determined as 0.97.

Consider GUUAACGGUCAUAGGCCAUGGAAACUAGGAGCACCAUUUCGCAGCCAGUGAAGAAAUGAACAAAGAAAAUCUGGGCCAGGCAGGCAUCAAAAGAAAUAGUCUUGUGCUCAACCAGAAAGUCUGUAAUCAUUUUAAGGGUA, for which the self-cleavage was 0.1.

Consider GUUAACGGUCAUAGGCCAUGGAAACUAGGAGCACCAUUUCGCUGCCAGUGAAGAAAUGAACAGAGAAAAUCUGGGCCAGGCAGGCAUCAAAAGAAAUAGUCUUGCGCUCAACCAGAAAGUCUGUAAUCAGUUUAAGGGUA, for which the self-cleavage was determined as 1.92.
